In patent US20060003330A1, “Streptococcus pneumoniae pbp2x mini-protein and uses thereof” (COMMISSARIAT A L'ENERGIE ATOMIQUE CENTRE NATIONAL DE LA …, priority 2002, published 2006):

Test: Solubility of purified mini-PBP2x (concentration without precipitating)
Type: physicochemical
Conditions: purified protein

B1: Mini-PBP2x: Modified recombinant protein derived from PBP2x of β-lactam-sensitive S. pneumoniae strain R6, with deletions in the n-PB domain replaced by Gly linkers (protein, listed as Streptococcus pneumoniae)
chain: GSGAKRGTIYDRNGVPIAEDATSGGPNRSYPNGQFASSFIGGGMESSLNSILAGGGGDGKDVYTTISSPLQSFMETQMDAFQEKVKGKYMTATLVSAKTGEILATTQRPTFDADTKEGITEDFVWRDILYQSNYEPGSTMKVMMLAAAIDNNTFPGGEVFNSSELKIADATIRDWDVNEGLTGGRTMTFSQGFAHSSNVGMTLLEQKMGDATWLDYLNRFKFGVPTRFGLTDEYAGQLPADNIVNIAQSSFGQGISVTQTQMIRAFTAIANDGVMLEPKFISAIYDPNDQTARKSQKEIVGNPVSKDAASLTRTNMVLVGTDPVYGTMYNHSTGKPTVTVPGQNVALKSGTAQIADEKNGGYLVGLTDYIFSAVSMSPAENPDFILYVTVQQPEHYSGIQLGEFANPILERASAMKDSLNLQTTAKALEQVSQQSPYPMPSVKDISPGDLAEELRRNLVQPIVVGTGTKIKNSSAEEGKNLAPNQQVLILSDKAEEVPDMYGWTKETAETLAKWLNIELEFQGSGSTVQKQDVRANTAIKDIKKITLTLGD
  solubility (can be concentrated without precipitating): ≥ 15 mg/mL
